Measurements published in patent publication US20210275657A1 (published 2021).

Tests used:
[1] = target: T1, GATA3 neoORF (frameshift mutation of GATA3), common region peptide on HLA-A*02:01 (human); test: IL-2 release (Meso Scale Discovery) by TCR-transduced Jurkat cells, 10:1 with HEK 293T cells (endogenous HLA-A02:01) loaded overnight with titrated GATA3 peptide; FIG. 44; full-length, on cells
[2] = target: T1, GATA3 neoORF (frameshift mutation of …); test: Summary statement of the same IL-2 peptide titration with TCR-transduced Jurkat cells and peptide loaded HEK 293T cells; full-length, on cells

- EC50 of peptide [1]: 37.9 nM
- EC50 of peptide [2]: < 40 nM
B1: GATA3 specific TCR clonotype 1 (TCR, V domains shown)
Valpha: SQKIEQNSEALNIQEGKTATLTCNYTNYSPAYLQWYRQDPGRGPVFLLLIRENEKEKRKERLKVTFDTTLKQSLFHITASQPADSATYLCALDIYGNNRLAFGKGNQVVVIP
Vbeta: DVKVTQSSRYLVKRTGEKVFLECVQDMDHENMFWYRQDPGLGLRLIYFSYDVKMKEKGDIPEGYSVSREKKERFSLILESASTNQTSMYLCASSLDFVLAGSYSYNEQFFGPGTRLTVL
